From paper PMC5701133 (Scientific Reports, 2017)

Molecular target: T1, BRD4 ET domain (residues M610-R676) (human, UniProt O60885 610-676, uniformly 15N-labelled for the NMR titrations)
T1 construct: human BRD4, extraterminal (ET) domain, residues 610-676; also called extraterminal (ET) domain of BRD4; source: E. coli BL21-CodonPlus (pRIL), purified (HiTrap IMAC, Superdex)
Experiment: ITC; MicroCal auto-ITC200, 20 °C, PBS pH 7.4 with 0.5 mM dithiothreitol; protein (0.5 mM) in the cell, peptide (7.5 mM) in the syringe; one set of sites model
Details: both partners purified

B1: JMJD6 peptide W85A (peptide, UniProt Q6NYC1 84-96, looked up)
peptide: KATLERLKRKYRN
notes: JMJD6 residues 84-96 with W85A; also called W85A peptide
Kd: 675 ± 66 µM
